Assays:
Ara h 2 [1] = target: T1, Ara h 2 (peanut, UniProt Q6PSU2 23-172, 4-hydroxyproline at positions 67, 74, and 86; biotinylated in the BLI assays); test: epitope summary
T1 construct: BLI: biotinylated (native) Ara h 2 on streptavidin sensors; also called conglutin-7; peanut allergen
T1 sequence: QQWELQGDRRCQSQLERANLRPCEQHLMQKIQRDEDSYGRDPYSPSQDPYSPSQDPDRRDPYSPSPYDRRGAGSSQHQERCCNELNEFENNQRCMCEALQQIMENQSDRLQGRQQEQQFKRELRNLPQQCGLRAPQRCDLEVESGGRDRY

Ara h 2 [2] = target: T1, Ara h 2; test: epitope bin summary
Peptide_012 = target: T2, Peptide_012 (peanut); test: peptide microarray
T2 construct: also called peptide 12
T2 peptide: QSQLERANLRPCEQH
Procedure: (§1) The peptide mapping using microarrays was performed with 40 antibody samples diluted 1:1000 in blocking buffer (see below). Sample dilutions were incubated for 1 hour at 30° C. on multiwell microarray slides. The slides contained 21 individual mini-arrays (1 mini-array per sample dilution).
(§2) Subsequent to sample incubation, secondary fluorescently labeled anti-human-IgG antibody at 1 μg/ml was added into the corresponding wells and left to react for 1 hour.
(§3) Additional control incubations applying the secondary antibody only was performed in parallel on the microarray slides to assess false-positive binding to peptides.

Peptide_011 = target: T3, Peptide_011 (peanut); test: peptide microarray
T3 construct: also called peptide 11
T3 peptide: RRCQSQLERANLRPC
Procedure: as §1, §2, §3

Peptide_009 = target: T4, Peptide_009 (peanut); test: peptide microarray
T4 construct: also called peptide 9
T4 peptide: WELQGDRRCQSQLER
Procedure: as §1, §2, §3

Peptide_010 = target: T5, Peptide_010 (peanut); test: peptide microarray
T5 construct: also called peptide 10
T5 peptide: QGDRRCQSQLERANL
Procedure: as §1, §2, §3

Ara h 2 [3] = target: T1, Ara h 2; test: SPR, Biacore 3000
Procedure: Calculated equilibrium dissociative constants (K)) for antigen binding to anti-Ara h 2 antibodies was determined using a real-time surface plasmon resonance biosensor (Biacore 3000) assay.

B1: 23BU2P31 (antibody, IgG1, V domains shown)
VH: QVQLQESGPGLVEPSETLSLTCTVSGDPFTSYYWTWIRQPAGKGLEWLGRIFTTGSTSYNPSLKSRVTMSVDTSKSQFSLKLTAVTAADTAVYYCARVRRYCSGGRCYPYFYMDVWGKGTTVIVSS
VL: DIRETQSPSTLSASVGDRVTITCRASESISSWLAWYQQKPGKAPKLLIYEASTLETGVPSRFSGSGSGTEFTLTIRSLQPDDFATYYCQHYNSDSLTFGGGTKVEIK
notes: recombinant IgG1
- binding result (Ara h 2 [1]): binds

B2: 23BU2P3 (antibody, IgG1, V domains shown)
VH: QVQLVESGGGLVQPGRSLRLSCAASGFIFADYTMHWVRQSPGKDLEWVSRISWNSGGVEYADSVKGRFTISRDNAKNSLYLQMNSLRVEDTALYYCVKDNGYRAFDLWGLGTMVTVSS
VL: DVVMTQSPVSLPVTPGEPASISCRSSQSLVHSNGYNYLDWYLQKPGQSPQLLIYMGSNRASGVPDRFSGSGSGTDFTLKISRVEAEDVGVYYCMQSLQTWTFGQGTKVEIK
notes: recombinant IgG1
- binding result (Ara h 2 [1]): binds

B3: 13FU1P1A4 (antibody, IgG1, V domains shown)
VH: VQLVESGGTLGQPGGSLRLSCTASGFTFNRFAINWVRQAPGKGLEWVAAISGTGAVTYYADSVEGRFSISRENSNNTVFLEMNNLRGEDTAVYFCAKDRTPVTNYYGMDVWGQGTTVTVSS
VL: TQSPSSLSASVGDRVIITCRGSQTIDNYLNWYQQKPGKAPRLLISAASSLQGGVPSRFSGSGYGTDFTLTISSLQPEDFATYYCQQTSSTPYTFGQGTKVEIK
notes: recombinant IgG1
- binding result (Ara h 2 [2]): binds

B4: 15FU1P1A3 (antibody, V domains shown)
VH: QSGAEVKKPGASVKISCKASGYTFTTYAMHWVRQAPGQRLEWMGGINAGNGNPKYSEKFQDRVTITRDTSATTAYMELSSLRSEDTAVYYCARDAAGTRGNWLDPWGQGTLVTVSS
VL: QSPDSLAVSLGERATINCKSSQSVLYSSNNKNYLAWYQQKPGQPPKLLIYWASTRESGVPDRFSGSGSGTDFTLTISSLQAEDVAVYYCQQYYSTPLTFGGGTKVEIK
notes: recombinant IgG1
- binding result (Ara h 2 [2]): binds

B5: 89BU7P1B10 (antibody, IgG1, V domains shown)
VH: QESGPGLVKPSETLSLTCTVSGGSIGRHYWSWIRQPPGKGLEWIAYIYDSGSTKYNPSLESRVTISEDTSQNQFSLKLTSVTAADTAIYYCARHNAPYGGNSDDYFEFWGPGTLVTVSS
VL: TQSPSSLSASVGDRVTITCRANETISDYLNWYQGKPGTAPKPLIYAASSLQSGVPSRFSGSGSETYFTLTISSLQPEDFATYYCQQSYSVPLTFGGGTKVESK
notes: recombinant IgG1
- binding result (Ara h 2 [2]): binds

B6: 15FU1P3A1 (antibody, IgG1, V domains shown)
VH: LVQSGAEVKKPGASVKVSCKASGYTFTRYDINWVRQATGQGLEWMGWMNPKSGETGYAQKFHGRVIMSWNTSISTAYMELSSLRSEDTAVYYCTRGVDSGVWGQGTTVTVSS
VL: TQSPDSLAVSLGERATINCKSSQSVLDSSNNKKFLAWFQQKPGQRPKLLIYWASTRESGVPDRFTGSGSGTDFTLTISSLQAEDVAVYYCQQYYSPPHTFGQGTKLEIK
notes: recombinant IgG1
- binding result (Peptide_012): binds
- binding result (Peptide_011): binds
- binding result (Peptide_009): binds
- binding result (Peptide_010): binds
- binding result (Ara h 2 [2]): binds

B7: 13BU2T3 (antibody, IgG1, V domains shown)
VH: GGGVVQPGTSLRLSCVASGFTFRDYSMHWVRQAPGKGLEWVSFIRFDGTTKDYRDSVKGRFIISRDDSKNTLYLQMTSLRVEDTALYYCAKDNGWRAFDHWGQGALVTVSS
VL: VMTQSPLSLPVTPGEAASISCRSSQSLLHRNGYIYLDWYLQRPGQSPQLLISFVSKRASGAPDRFSGSGSGTDFTLTISRVEAEDFGVYFCMQALETPWTFGPGTKLEIK
notes: recombinant IgG1
- Kd (Ara h 2 [3]): 0.193 nM

B8: 23BU2P34 (antibody, IgG1, V domains shown)
VH: QVQLVESGGLVVQPGGSLRLSCEASGFTFDDYTMHWVRQSPQKGLEWVSLIRWDGSRTEYADSVKGRFTISRDNSKNSLYLQMNTLRADDSAFYFCVKDGGLRYFDSWGQGTLVTVSS
VL: EIVMTQSPLSLPVTPGEPASISCRSSQSLLHSNGIHYLDWYLQKPGQSPQLLIYLGSKRASGVPDRFSGSGSGTDFTLKISRVEAEDVGVYYCMQSLQTFTFGPGTKVDIK
notes: recombinant IgG1
- binding result (Ara h 2 [1]): binds

B9: 13BU2T4 (antibody, IgG1, V domains shown)
VH: ESGPRLVKPSETLSLTCIVSGDSISSYYWGWIRQPAGRGLEWIGRIFTSGSTTYNPSLKSRVSMSVETSKNQFSLTLTSVTAADTAVYFCARDRRALSSDGNWYWYFDLWGRGTLVAVSS
VL: TQSPSSLSASVGDRVTITCRASQTITRNLNWYQQKSGEAPKLLIYGASILQSGVPSRFTGSGSGTDFTLTISNLQPEDFASYSCQQSDNTPRTFGQGTKVEIK
notes: recombinant IgG1
- Kd (Ara h 2 [3]): 0.00143 nM

B10: 11FUP1A2 (antibody, IgG1, V domains shown)
VH: ESGGAVVQPGGSLRLSCAASGFTVEDYTIHWVRQVPGKGLEWISLISWDGDRTAYTDSVKGRFTISRDNIKNSLYLLMNSLRTEDTALYYCVKDNGWRSFAYWGQGILVTVST
VL: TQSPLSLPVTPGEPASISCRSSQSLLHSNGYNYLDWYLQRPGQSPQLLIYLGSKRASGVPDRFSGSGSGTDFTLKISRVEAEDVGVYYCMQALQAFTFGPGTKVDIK
notes: recombinant IgG1
- binding result (Ara h 2 [2]): binds

B11: 27FU1P3A4 (antibody, IgG1, V domains shown)
VH: ESGGGLVQPGGSLRLSCVASGFPFDDFVFAWVRQAPGGGLEWVSAISSRRTNTFYADSVKGRFTISRDNTRKTVNLQMNSLRGEDTAVYYCAKGETRYLEWIIQSSGFDYWGPGTLVAVSS
VL: QSPSSLSASVGERVTITCRANQTISTYLNWYQQKVGKAPKSLIRAASSLESGVPSRFSGSGSGTDFTLTINSLQREDFATYYCQQTYNVPPTFGQGTRVELK
notes: recombinant IgG1
- binding result (Ara h 2 [2]): binds

B12: 22BU2S4 (antibody, IgG1, V domains shown)
VH: RCKLQESGPGLVKPSESLSLTCNVSGMSISSYYWSWIRQPAGKGLEWIGRIFTTGSTKDNPSLKSRVTMSVDTSRNQFSLTLTSVTAADTAVYYCARLRRVVVPRVSWYFDLWGHGTLVTVSS
VL: TQSPSSLSASVGDRVTITCQASQDISKSLNWYHQKPGKAPTVLIYDASNLETGVPSRFSGSGSGTEFTFTISSLQSEDFGTYYCQQYDNVPMYTFGQGTKVETK
notes: recombinant IgG1
- binding result (Ara h 2 [1]): binds

B13: 6BU4P2B1 (antibody, IgG1, V domains shown)
VH: VESGGGLIQPGRSLRLSCAVSGFSFDDYAMYWVRQVPGKGLEWVSGISWNSGTIEYADSVKGRFTISRDNAKKSLFLEMNSLRSEDTAIYYCAKGTGWELVSALENWGQGTVVTVSS
VL: QSPSSLSASVGNKVTITCRASQTISDYLNWYQQKPGKAPKLLIYAASSLQSAVPSRFAGSGSGTEFTLTISSLQPEDFATYYCQQSYSPPFTFGPGTKVDIK
notes: recombinant IgG1
- binding result (Ara h 2 [2]): binds

B14: 14FU2P1D6 (antibody, IgG1, V domains shown)
VH: ESGPGLVKPSETLSLTCTVSGDSISSYYWSWIRQPAGKGLEWIGRIFTSGSTNINPSLKSRVTMSVDTSKNQFSLQLGSVTAADTAIYYCAKHTRDFWSDDSRVHWYFNLWGRGTLVTVSS
VL: QSPGTLSLSPGERATLSCRASQSVSNNFLAWYQQQPGQAPSLLIYGASTRATGIPDRFSGSGSGTDFTLTISRLEPEDFAVYFCQQYDSSPYTFGQGTKLEIK
notes: recombinant IgG1; also called 14FU1P1D6
- binding result (Ara h 2 [2]): binds

B15: 13BU2T5 (antibody, V domains shown)
VH: QVQLQESGPGLVKPSETLSLTCTVSGGSMSSYYWGWIRQPAGRGLEWIGRIFTTGSTIYNASLNSRVSMSVDTSKNQFSLKLTSVTAADTALYFCVRDRRGRSHDSNWYWYFDLWGRGTLVTVSS
VL: RVIITCRASQTLSRNLNWYQQKPGEAPKLLIYGASTLQSGVPSRFTGSGSGTDFTLIISGLQPEDFATYYCQQSDNTPRTFGQGT
- Kd (Ara h 2 [3]): 0.112 nM

— US20240175877A1 (GENERAL HOSPITAL, published 2024)
